Results published in US20240116985A1 (published 2024).
Starred links: 1 amine or outer side, 2 acyl side, 3 side chain; linkers in the order of their positions; H or OH if unused. Positions of bridges follow the written chain, without caps; N, C: chain ends. Non-standard residues stand in square brackets, D forms with d. Primed or numbered codes have the meaning given here. B5(17) = 2,2-bis(4-pentenyl)glycine = 2-amino-2-(pent-4-en-1-yl)hept-6-enoic acid, stitching residue, C=CCCCC(CCCC=C)(N[*:1])C(=O)[*:2]; B5(24) = 2-amino-2-(pent-4-en-1-yl)hept-6-enoic acid, 2,2-bis(4-pentenyl)glycine (stitching residue), C=CCCCC(CCCC=C)(N[*:1])C(=O)[*:2]; B5(4) = 2,2-bis(4-pentenyl)glycine = 2-amino-2-(pent-4-en-1-yl)hept-6-enoic acid (stitching residue), C=CCCCC(CCCC=C)(N[*:1])C(=O)[*:2]; PyrS = (S)-1-((allyloxy)carbonyl)-3-aminopyrrolidine-3-carboxylic acid, C=CCOC(=O)N1CC[C@@](N[*:1])(C(=O)[*:2])C1; 6F1NapA = 2-amino-3-(6-fluoronaphthalen-1-yl)propanoic acid, O=C([C@H](Cc1cccc2cc(F)ccc12)N[*:1])[*:2]; B5(3) = 2,2-bis(4-pentenyl)glycine (stitching residue), C=CCCCC(CCCC=C)(N[*:1])C(=O)[*:2]; Phe(3-F) = N[C@@H](Cc1cccc(F)c1)C(=O)O; Bta = N[C@@H](Cc1csc2ccccc12)C(=O)O; hTyr = N[C@@H](CCc1ccc(O)cc1)C(=O)O; αAllylPro = C=CC[C@@]1(C(=O)O)CCCN1; hPhe = N[C@@H](CCc1ccccc1)C(=O)O; 4Pal = N[C@@H](Cc1ccncc1)C(=O)O; R8 = C=CCCCCCC[C@@](C)(N)C(=O)O; S8 = C=CCCCCCC[C@](C)(N)C(=O)O; Nle = CCCC[C@H](N)C(=O)O

T1: full-length beta-Catenin (Uniprot ID P35222) (Homo sapiens (Human), UniProt P35222 1-781)
T1 construct: Used full-length in the FP and AlphaScreen assays; also called B-Catenin; bCat
T1 sequence: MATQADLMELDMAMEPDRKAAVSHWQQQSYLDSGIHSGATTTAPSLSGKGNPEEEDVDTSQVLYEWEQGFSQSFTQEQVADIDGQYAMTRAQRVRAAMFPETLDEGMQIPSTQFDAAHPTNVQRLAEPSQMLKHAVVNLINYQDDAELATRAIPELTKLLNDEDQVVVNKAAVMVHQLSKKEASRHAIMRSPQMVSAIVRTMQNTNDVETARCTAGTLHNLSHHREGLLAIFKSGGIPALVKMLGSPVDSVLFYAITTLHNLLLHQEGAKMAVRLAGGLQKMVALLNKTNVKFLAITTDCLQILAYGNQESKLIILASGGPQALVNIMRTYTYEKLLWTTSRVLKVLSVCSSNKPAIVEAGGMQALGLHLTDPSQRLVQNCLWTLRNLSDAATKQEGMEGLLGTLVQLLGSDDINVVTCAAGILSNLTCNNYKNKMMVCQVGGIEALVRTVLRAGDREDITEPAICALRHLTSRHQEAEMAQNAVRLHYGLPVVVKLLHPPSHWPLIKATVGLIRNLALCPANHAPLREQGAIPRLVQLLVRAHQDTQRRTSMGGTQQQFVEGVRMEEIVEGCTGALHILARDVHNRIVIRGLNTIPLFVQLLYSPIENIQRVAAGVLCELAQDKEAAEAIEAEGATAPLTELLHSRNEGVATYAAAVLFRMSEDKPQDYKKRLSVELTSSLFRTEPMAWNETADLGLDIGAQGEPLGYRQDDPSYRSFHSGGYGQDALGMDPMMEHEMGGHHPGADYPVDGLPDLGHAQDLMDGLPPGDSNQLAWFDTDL

T2: full-length beta-Catenin (Uniprot ID P35222) (Homo sapiens (Human), UniProt P35222 1-781)
T2 construct: The assay text says 'full-length beta-Catenin (Uniprot ID P35222)'; also called bCat; B-Catenin
T2 sequence: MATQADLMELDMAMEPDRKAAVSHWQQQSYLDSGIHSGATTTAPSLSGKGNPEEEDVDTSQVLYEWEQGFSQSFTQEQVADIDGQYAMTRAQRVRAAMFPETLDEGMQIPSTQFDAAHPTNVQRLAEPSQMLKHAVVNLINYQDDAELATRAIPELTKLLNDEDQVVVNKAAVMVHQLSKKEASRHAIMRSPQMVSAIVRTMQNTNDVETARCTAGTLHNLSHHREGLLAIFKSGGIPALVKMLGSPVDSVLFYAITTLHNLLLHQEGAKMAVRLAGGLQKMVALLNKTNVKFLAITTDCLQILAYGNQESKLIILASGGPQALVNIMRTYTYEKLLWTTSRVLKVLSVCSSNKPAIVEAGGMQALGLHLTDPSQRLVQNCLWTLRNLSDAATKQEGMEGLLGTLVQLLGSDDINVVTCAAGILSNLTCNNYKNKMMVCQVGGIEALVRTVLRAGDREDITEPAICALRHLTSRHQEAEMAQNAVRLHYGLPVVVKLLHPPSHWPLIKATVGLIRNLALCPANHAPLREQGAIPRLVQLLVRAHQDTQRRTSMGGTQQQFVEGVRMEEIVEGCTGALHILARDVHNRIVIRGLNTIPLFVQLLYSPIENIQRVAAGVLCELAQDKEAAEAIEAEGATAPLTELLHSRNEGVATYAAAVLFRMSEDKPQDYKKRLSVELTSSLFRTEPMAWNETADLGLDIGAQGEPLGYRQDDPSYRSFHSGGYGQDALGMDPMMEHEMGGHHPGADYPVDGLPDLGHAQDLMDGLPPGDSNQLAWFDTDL

T3: full-length beta-Catenin (Uniprot ID P35222) (Homo sapiens (Human), UniProt P35222 1-781)
T3 construct: The assay protocols call it full-length; also called B-Catenin; bCat
T3 sequence: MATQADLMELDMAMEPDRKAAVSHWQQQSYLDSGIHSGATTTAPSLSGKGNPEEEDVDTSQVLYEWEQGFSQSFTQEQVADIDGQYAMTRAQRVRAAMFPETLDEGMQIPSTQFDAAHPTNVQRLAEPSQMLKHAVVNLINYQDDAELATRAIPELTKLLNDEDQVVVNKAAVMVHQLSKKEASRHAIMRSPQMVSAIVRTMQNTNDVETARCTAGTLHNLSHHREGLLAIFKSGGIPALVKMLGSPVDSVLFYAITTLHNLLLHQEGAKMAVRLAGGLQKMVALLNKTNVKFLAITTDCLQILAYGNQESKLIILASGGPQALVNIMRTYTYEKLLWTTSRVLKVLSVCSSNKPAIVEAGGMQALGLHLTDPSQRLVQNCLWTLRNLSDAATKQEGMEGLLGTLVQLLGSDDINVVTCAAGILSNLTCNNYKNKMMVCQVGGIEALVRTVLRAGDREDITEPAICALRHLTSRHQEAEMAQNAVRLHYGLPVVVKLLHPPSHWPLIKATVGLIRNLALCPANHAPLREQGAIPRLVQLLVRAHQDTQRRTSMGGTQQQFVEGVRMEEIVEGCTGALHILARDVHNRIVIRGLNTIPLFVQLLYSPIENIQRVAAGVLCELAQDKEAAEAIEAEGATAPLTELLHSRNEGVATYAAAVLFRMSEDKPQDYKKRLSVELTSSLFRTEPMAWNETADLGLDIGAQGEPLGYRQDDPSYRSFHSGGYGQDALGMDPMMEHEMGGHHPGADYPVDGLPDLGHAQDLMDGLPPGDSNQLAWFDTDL


Tests used:
[1] = target: T1, full-length beta-Catenin (Uniprot ID …); assay: AlphaScreen (nickel chelate) competition; full-length beta-catenin + biotin-TCF4(10-53) probe as competitor; peptide titrated
Method: (§1) Equal volume of the titrated peptide was added to the plate and incubated for 15 minutes at 20° C. Then 4 uL of donor and 4 uL acceptor beads at 10 ug/mL were added to the plate, for a 16 uL reaction pool and protected from light for 60 minutes at 20° C. prior to read. Reads were performed on a CLARIOstar plate reader (BMG Labtech) in duplicate, and data were fitted to a 1:1 binding model with hill slope using an in-house script. All provided concentrations are final concentrations.

[2] = target: T2, full-length beta-Catenin (Uniprot ID …); assay: fluorescence polarization competition; full-length beta-catenin, competitor 5FAM-TCF4(10-53) probe
Method: The plate was incubated protected from light for 60 minutes at 20° C. prior to read. Reads were performed on a CLARIOstar plate reader (BMG Labtech) in duplicate, and data were fitted to a 1:1 binding model with hill slope using an in-house script. All provided concentrations are final concentrations.

[3] = target: T3, full-length beta-Catenin (Uniprot ID …); assay: AlphaScreen competition; full-length beta-catenin with biotin-labelled TCF4 10-53 peptide as competitor
Method: as §1

| EC50 [1] | EC50 [2] | Binder | also measured |
| --- | --- | --- | --- |
| 6.16 µM | – | Ac-[αAllylPro]FA[B5(3)]DEAAFV[S8]FWQ-NH2 (staple 1-4, 4-11, Stapled peptide composition) [I-201] | – |
| 7.28 µM | – | Ac-[αAllylPro][Phe(3-F)]A[B5(3)]DEAAFV[S8]FWQ-NH2 (staple 1-4, 4-11, Stapled peptide composition) [I-204] | – |
| 7.88 µM | – | Ac-[αAllylPro]YA[B5(3)]DEAAFV[S8]FWQ-NH2 (staple 1-4, 4-11, Stapled peptide composition) [I-202] | – |
| 2.14 µM | – | Ac-[αAllylPro]DA[B5(4)]HEAAFV[S8]FWQ-NH2 (staple 1-4, 4-11, Stapled peptide composition) [I-206] | – |
| – | 5 µM | Ac-[αAllylPro]DI[B5(24)]FEAAFQ[S8]D[Bta]Q-NH2 (staple 1-4, 4-11, Stapled peptide composition) [I-587] | – |
| – | 5 µM | XDAXDDAAFQXFXQ (not fully specified; Ac-PL3-Asp-Ala-B5-Asp-Asp-Ala-Ala-Phe-Gln-S8-Phe-BztA-Gln-NH2; stapled PL3(1)-B5(4) and B5(4)-S8(11) by olefin metathesis, Stapled peptide composition; the description may be misprinted) [I-578] | – |
| – | – | Ac-[αAllylPro]DA[B5(4)]D[6F1NapA]AAFV[S8]FWQ-NH2 (staple 1-4, 4-11, Stapled (stitched) peptide; also called Ac-PL3-Asp-Ala-B5-Asp-6F1NapA-Ala-Ala-Phe-Val-S8-Phe-Trp-Gln-NH2) [I-256] | EC50 [3]: 9.21 µM |
| – | 5 µM | Ac-[αAllylPro]DI[B5(24)]DEAA[Bta]Q[S8]FFQ-NH2 (staple 1-4, 4-11; not fully specified; printed as Ac-PL3-Asp-Ile-B5-Asp-Glu-Ala-Ala-BztA-Gln-S8-Phe-Phe-Gln-NH2, Stapled peptide composition) [I-586] | – |
| – | 0.112 µM | XDIXDDAAFQXFXH (not fully specified; Ac-PL3-Asp-Ile-B5-Asp-Asp-Ala-Ala-Phe-Gln-S8-Phe-BztA-His-NH2; stapled PL3(1)-B5(4) and B5(4)-S8(11) by olefin metathesis, Stapled peptide composition; same description as I-580, later eluting HPLC peak (staple isomer)) [I-581] | – |
| ≥ 10 µM | – | Ac-[αAllylPro]DA[B5(3)][Nle]EAAFV[S8]FWQ-NH2 (staple 1-4, 4-11, Stapled peptide composition) [I-205] | – |
| – | 0.013 µM | XDLXDEAAFNXFXQ (not fully specified; Ac-PL3-Asp-Leu-B5-Asp-Glu-Ala-Ala-Phe-Asn-S8-Phe-BztA-Gln-NH2; stapled PL3(1)-B5(4) and B5(4)-S8(11) by olefin metathesis, Stapled peptide composition; same description as I-576, later eluting HPLC peak (staple isomer)) [I-577] | – |
| – | 5 µM | Ac-FDA[R8]DDAAFQ[PyrS]FWQ-NH2 (staple 4-11; not fully specified; printed as Ac-Phe-Asp-Ala-R8-Asp-Asp-Ala-Ala-Phe-Gln-PyrS-Phe-Trp-Gln-NH2, Stapled peptide composition) [I-579] | – |
| – | 5 µM | Ac-[αAllylPro]DI[B5(24)]DEAA[Bta]Q[S8]FFQ-NH2 (staple 1-4, 4-11; not fully specified, Stapled peptide composition) [I-585] | – |
| – | 0.023 µM | XDLXDEAAFNXFXQ (not fully specified; Ac-PL3-Asp-Leu-B5-Asp-Glu-Ala-Ala-Phe-Asn-S8-Phe-BztA-Gln-NH2; stapled PL3(1)-B5(4) and B5(4)-S8(11) by olefin metathesis, Stapled peptide composition; same description as I-577, earlier eluting HPLC peak (staple isomer)) [I-576] | – |
| 5.51 µM | – | Ac-[αAllylPro]DA[B5(4)][hPhe]EAAFV[S8]FWQ-NH2 (staple 1-4, 4-11, Stapled peptide composition; this is the earlier-eluting isomer composition) [I-196] | – |
| – | – | Ac-[αAllylPro]DA[B5(17)]D[4Pal]AAFV[S8]FWQ-NH2 (staple 1-4, 4-11, Stapled (stitched) peptide; also called Ac-PL3-Asp-Ala-B5-Asp-4PyrA-Ala-Ala-Phe-Val-S8-Phe-Trp-Gln-NH2) [I-272] | EC50 [3]: 1.01 µM |
| – | – | Ac-[αAllylPro]DA[B5(17)]D[hTyr]AAFV[S8]FWQ-NH2 (staple 1-4, 4-11, Stapled (stitched) peptide; also called Ac-PL3-Asp-Ala-B5-Asp-hTyr-Ala-Ala-Phe-Val-S8-Phe-Trp-Gln-NH2) [I-273] | EC50 [3]: 1.89 µM |
| – | – | Ac-[αAllylPro]DA[B5(17)]DDAAFV[S8][hTyr]WQ-NH2 (staple 1-4, 4-11, Stapled (stitched) peptide; also called Ac-PL3-Asp-Ala-B5-Asp-Asp-Ala-Ala-Phe-Val-S8-hTyr-Trp-Gln-NH2) [I-269] | EC50 [3]: 5.31 µM |
| – | – | Ac-[αAllylPro]DA[B5(17)]DDAAFV[S8][hPhe]WQ-NH2 (staple 1-4, 4-11, Stapled (stitched) peptide; also called Ac-PL3-Asp-Ala-B5-Asp-Asp-Ala-Ala-Phe-Val-S8-hPhe-Trp-Gln-NH2) [I-268] | EC50 [3]: 4 µM |
| 2.18 µM | – | Ac-[αAllylPro]DA[B5(4)]D[hPhe]AAFV[S8]FWQ-NH2 (staple 1-4, 4-11, Stapled peptide composition) [I-195] | – |
